Our source for the Kd values is US20220281986A1 (RESEARCH FOUNDATION FOR THE STATE UNIVERSITY OF NEW YORK, published 2022).

For this assay, the target named is T1, peptide corresponding to the N-terminal domain of CXCR4 (biotinylated (position not given)).
T1 construct: Synthetic peptide (ABclonal), biotinylated and captured on neutravidin-coated plates; also called CXCR4 N-terminal domain; NTD of CXCR4
T1 peptide: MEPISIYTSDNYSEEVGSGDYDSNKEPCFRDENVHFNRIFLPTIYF
Nature of the assay: ELISA; serially diluted scFv on biotinylated CXCR4 N-terminal peptide captured on neutravidin. Here is the method:
The binding affinity of the anti-CXCR4 scFv was assessed with an ELISA. Purified anti-CXCR4 scFvs were serially diluted and added to a 96-well plate that was first coated with neutravidin and then coated with the biotinylated CXCR4 N-terminal peptide domain. Anti-FLAG-HRP conjugate (Sigma Aldrich) served as the primary antibody. 100 μL of Ultra-TMB substrate (Thermo Fisher Scientific) was added to quantify the amount of bound anti-CXCR4 scFv. The reaction was then quenched with 12.5 M H₂SO₄ aqueous solution. Readings were taken using a plate reader with the wavelength set to 450 nm.
A general note: In an ELISA, binding on a coated surface is turned into a signal by an enzyme label.

B1: CXCR4-scFv (scFv)
scFv: QSVLTQPPSASGTPGQRVTISCSGSSSNIGSNYVYWYQQLPGTAPKLLIYRNNQRPSGVPDRFSGSKSGTSASLAISGLRSEDEGDYYCATWDDSLSGVVFGGGTKLTVLGEGKSSGSGSESKASQVTLKESGAEVKKPGASVKVSCKASGYTFTNFYIHWVRRAPGQGLEWMGIINPSDGRTTYAQKFQGRVTMTRDTSTSTLYMELTSLRSEDTAVYYCGRGGHYSNYFGQPSTWGQGTLVTVSVEASHHHHHH
modifications: labeled with DyLight 650 (NHS ester) in the cell binding and imaging assays; unlabeled in the ELISA
notes: also called scFv#c; anti-CXCR4 scFv
As a reminder, the Kd is the constant that tells how readily two partners part at equilibrium. Read a high Kd as a looser complex. B1 returned a dissociation constant Kd of 114 nM.
